T1: CD30 expressed on cells (CD30-293T, SUDHL1, HDLM-2) (UniProt P28908 19-595)
T1 sequence (looked up): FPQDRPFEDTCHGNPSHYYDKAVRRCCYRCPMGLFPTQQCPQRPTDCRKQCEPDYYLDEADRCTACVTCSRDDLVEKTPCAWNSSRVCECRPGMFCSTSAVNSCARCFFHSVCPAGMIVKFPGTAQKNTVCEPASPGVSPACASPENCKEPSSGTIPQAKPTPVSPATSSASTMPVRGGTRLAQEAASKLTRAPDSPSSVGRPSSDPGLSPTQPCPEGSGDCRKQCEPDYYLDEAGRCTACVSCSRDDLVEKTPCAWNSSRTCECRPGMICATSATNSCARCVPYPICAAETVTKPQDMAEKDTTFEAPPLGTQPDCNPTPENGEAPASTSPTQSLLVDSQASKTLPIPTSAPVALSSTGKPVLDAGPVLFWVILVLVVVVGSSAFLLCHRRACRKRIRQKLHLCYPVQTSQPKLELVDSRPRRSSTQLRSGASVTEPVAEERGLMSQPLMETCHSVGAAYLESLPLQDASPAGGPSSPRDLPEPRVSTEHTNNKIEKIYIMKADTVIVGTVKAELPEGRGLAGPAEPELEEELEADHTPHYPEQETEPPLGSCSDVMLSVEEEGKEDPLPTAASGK

B1: scFv CAR of anti CD30 antibody (T1-2), on CAR-T cells (other)
chain: EVQLLESGGGLVQPGGSLRLSCAASGFTFSGYGMSWVRQAPGKGLEWVSYISGYSYYTYYADSVKGRFTFSRDNSKNTLYLQMNSLRAEDTAVYYCARYDGNGFDYWGQGTLVTVSSGGGGSGGGGSGGGGSQSVLTQPPSASGTPGQRVTISCSGSSSNIGSNYVYWYQQLPGTAPKLLIYRNNQRPSGVPDRFSGSKSGTSASLAISGLRSEDEADYYCAADSSDDSYVFGGGTKLTVLGGQAGQTTTPAPRPPTPAPTIASQPLSLRPEACRPAAGGAVHTRGLDFACDIYIWAPLAGTCGVLLLSLVITLYCKRGRKKLLYIFKQPFMRPVQTTQEEDGCSCRFPEEEEGGCELRVKFSRSADAPAYQQGQNQLYNELNLGRREEYDVLDKRRGRDPEMGGKPRRKNPQEGLYNELQKDKMAEAYSEIGMKGERRRGKGHDGLYQGLSTATKDTYDALHMQALPPR
B2: scFv CAR of anti CD30 antibody (T1-23), on CAR-T cells (other)
chain: EVQLLESGGGLVQPGGSLRLSCAASGFTFSSYSMSWVRQAPGKGLEWVSGIGYPYYTYYADSVKGRFTISRDNSKNTLYLQMNSLRAEDTAVYYCARYYYDYGFDYWGQGTLVTVSSGGGGSGGGGSGGGGSQSVLTQPPSASGTPGQRVTISCSGSSSNIGSNYVYWYQQLPGTAPKLLIYRNNQRPSGVPDRFSGSKSGTSASLAISGLRSEDEADYYCAAYRSYDYVFGGGTKLTVLGGQAGQTTTPAPRPPTPAPTIASQPLSLRPEACRPAAGGAVHTRGLDFACDIYIWAPLAGTCGVLLLSLVITLYCKRGRKKLLYIFKQPFMRPVQTTQEEDGCSCRFPEEEEGGCELRVKFSRSADAPAYQQGQNQLYNELNLGRREEYDVLDKRRGRDPEMGGKPRRKNPQEGLYNELQKDKMAEAYSEIGMKGERRRGKGHDGLYQGLSTATKDTYDALHMQALPPR
B3: scFv CAR of anti CD30 antibody (T1-10), on CAR-T cells (other)
chain: EVQLLESGGGLVQPGGSLRLSCAASGFTFSSYGMSWVRQAPGKGLEWVSYISGGSYYTYYADSVKGRFTISRDNSKNTLYLQMNSLRAEDTAVYYCARYGYGYYDGSFDYWGQGTLVTVSSGGGGSGGGGSGGGGSQSVLTQPPSASGTPGQRVTISCSGSSSNIGSNYVYWYQQLPGTAPKLLIYRNNQRPSGVPDRFSGSKSGTSASLAISGLRSEDEADYYCAADGPYNYVFGGGTKLTVLGGQAGQTTTPAPRPPTPAPTIASQPLSLRPEACRPAAGGAVHTRGLDFACDIYIWAPLAGTCGVLLLSLVITLYCKRGRKKLLYIFKQPFMRPVQTTQEEDGCSCRFPEEEEGGCELRVKFSRSADAPAYQQGQNQLYNELNLGRREEYDVLDKRRGRDPEMGGKPRRKNPQEGLYNELQKDKMAEAYSEIGMKGERRRGKGHDGLYQGLSTATKDTYDALHMQALPPR

molecular target: T1, CD30 expressed on cells (CD30-293T, …); assay: cell-based or functional assay

Compared with B1, B2 is higher in “Cytotoxicity (%) against CD30-expressing cell (CD30-293T), CAR-T/Target 0.11” value: 1% for the first, 7% for the second.

B3 was tested, and the “Cytotoxicity (%) against CD30-expressing cell (CD30-293T), CAR-T/Target 0.11” value was 1%.

Going from B1 to B2, the “Cytotoxicity (%) against CD30-expressing cell (CD30-293T), CAR-T/Target 0.33” value rises from 7% to 41%.

With B3 the “Cytotoxicity (%) against CD30-expressing cell (CD30-293T), CAR-T/Target 0.33” value was 7%.

First: B1
Second: B2
The “Cytotoxicity (%) against CD30-expressing cell (CD30-293T), CAR-T/Target 1” value of the first is lower: 13% for the first, 79% for the second.

For B3, the “Cytotoxicity (%) against CD30-expressing cell (CD30-293T), CAR-T/Target 1” value was 33%.

molecular target: T1, CD30 expressed on cells (CD30-293T, …); assay: cell-based or functional assay; remark: another data set of the same source

First: B1
Second: B2
The “Cytotoxicity (%) against CD30-expressing cell (SUDHL1), CAR-T/Target 0.11” value of the first is lower: 11% for the first, 37% for the second.

For B3, the “Cytotoxicity (%) against CD30-expressing cell (SUDHL1), CAR-T/Target 0.11” value was 33%.

First: B1
Second: B2
The “Cytotoxicity (%) against CD30-expressing cell (SUDHL1), CAR-T/Target 0.33” value of the first is lower: 35% for the first, 68% for the second.

In the case of B3, the “Cytotoxicity (%) against CD30-expressing cell (SUDHL1), CAR-T/Target 0.33” value is reported as 60%.

Compared with B1, B2 is higher in “Cytotoxicity (%) against CD30-expressing cell (SUDHL1), CAR-T/Target 1” value: 54% for the first, 84% for the second.

In the case of B3, the “Cytotoxicity (%) against CD30-expressing cell (SUDHL1), CAR-T/Target 1” value is reported as 81%.

— patent US20240392023A1 (ABCLON, published 2024)
